Columns and labels:
[1] = biological target: the molecule itself; experiment: high-speed AFM; purified complexes on bare mica, imaged in 25 mM Tris-HCl pH 7.5, 75 mM KCl, 3 mM MgCl2, tapping mode; with or without 1 mM ATP or ATP-γ-S
human Rad50 = biological target: T1, human Rad50 (human, UniProt Q92878 1-1312); experiment: co-purification (anti-FLAG affinity, ion exchange, size exclusion); proteins co-expressed in Sf9 cells; extract at 200 mM KCl on anti-FLAG M2 beads by Rad50-3×FLAG, eluted by PreScission cleavage, HiTrapQ; wild-type Mre11/Rad50 further on Superdex 200; molar ratio from the purified preparations; conditions: partners not purified
T1 construct: Captured by the 3xFLAG tag on anti-FLAG beads, then released by PreScission cleavage, so the tag is absent in the AFM samples; Expressed with Mre11 (and Nbs1) or alone; also called Rad50-3×FLAG; R of MRN, Mre11/Rad50 and M2R2; source: Sf9, baculovirus, purified (anti-FLAG M2 beads, eluted by PreScission cleavage, HiTrapQ, Superdex 200); not shown: 3xFLAG, C-terminal, cleaved
T1 sequence (looked up): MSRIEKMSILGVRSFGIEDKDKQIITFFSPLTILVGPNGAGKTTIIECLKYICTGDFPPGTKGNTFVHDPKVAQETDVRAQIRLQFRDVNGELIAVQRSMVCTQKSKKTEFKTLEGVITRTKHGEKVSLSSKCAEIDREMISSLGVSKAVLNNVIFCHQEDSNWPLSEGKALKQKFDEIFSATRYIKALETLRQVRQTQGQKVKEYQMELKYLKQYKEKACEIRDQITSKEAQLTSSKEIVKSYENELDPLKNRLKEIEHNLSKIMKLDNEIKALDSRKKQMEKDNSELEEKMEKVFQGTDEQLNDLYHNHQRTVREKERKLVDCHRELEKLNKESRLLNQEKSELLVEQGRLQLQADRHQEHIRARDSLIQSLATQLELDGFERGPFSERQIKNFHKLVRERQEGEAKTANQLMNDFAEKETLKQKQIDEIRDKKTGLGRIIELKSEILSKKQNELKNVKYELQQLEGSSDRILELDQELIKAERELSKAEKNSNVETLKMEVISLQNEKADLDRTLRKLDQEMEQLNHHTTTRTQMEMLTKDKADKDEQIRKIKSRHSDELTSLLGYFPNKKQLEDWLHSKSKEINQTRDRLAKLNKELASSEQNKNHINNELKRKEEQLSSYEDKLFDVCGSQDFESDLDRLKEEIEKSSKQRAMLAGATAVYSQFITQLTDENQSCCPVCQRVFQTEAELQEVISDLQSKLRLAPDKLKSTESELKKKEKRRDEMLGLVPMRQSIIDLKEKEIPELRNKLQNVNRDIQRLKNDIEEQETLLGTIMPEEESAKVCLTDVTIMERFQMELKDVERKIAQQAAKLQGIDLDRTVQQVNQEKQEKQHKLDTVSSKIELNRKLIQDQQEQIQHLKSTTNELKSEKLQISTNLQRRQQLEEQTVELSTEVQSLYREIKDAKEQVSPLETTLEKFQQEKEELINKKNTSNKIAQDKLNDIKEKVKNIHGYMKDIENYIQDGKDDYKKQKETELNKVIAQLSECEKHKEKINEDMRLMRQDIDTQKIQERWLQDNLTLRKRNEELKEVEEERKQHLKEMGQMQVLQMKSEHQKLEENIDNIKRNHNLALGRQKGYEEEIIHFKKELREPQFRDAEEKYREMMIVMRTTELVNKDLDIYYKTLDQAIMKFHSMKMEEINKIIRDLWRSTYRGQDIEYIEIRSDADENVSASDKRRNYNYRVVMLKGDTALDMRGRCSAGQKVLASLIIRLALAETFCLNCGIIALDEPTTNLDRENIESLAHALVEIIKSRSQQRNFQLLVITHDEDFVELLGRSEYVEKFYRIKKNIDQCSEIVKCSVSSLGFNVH

Binder | binding result [1] | stoichiometry N (human Rad50)
E. coli SbcC (natural protein, SbcC (E. coli Rad50), E. coli; also called E. coli Rad50; SbcC of SbcCD; source: E. coli DL776 with plasmid pDL761, purified as SbcCD (HiTrap DEAE, ammonium precipitation, Superose 6, Mono Q)) not shown | binds | –
S. pombe Rad50 (natural protein, UniProt Q9UTJ8 1-1285, looked up, Rad50, S. pombe; The host is a wild-type strain, so endogenous Rad50 and Mre11 were also present; also called fission yeast Rad50; rad50:TEV:PA; source: S. pombe CA3, from pREP1-rad50:TEV:PA, co-purified with Mre11-3xFLAG (anti-FLAG M2 agarose, HRV3C elution, Superose 6HR)) MSCIDRMSIMGIRSFDNRSRESIQFFSPLTLIVGQNGSGKTTIIECLKYATTGILPPNTKGGAFIHDPKICGEKEVLAQVKLAFRNTNQVKMICTRSLQLSVKKTTRQQKTLDGQLLILKDNERTTISNRCAELDSQVPLSLGVSKALLDYVIFCHQEESFWPLSEPANLKKRFDEIFESLRYAKALDQIKGLKRDQETQVKVDQATLTHYRSDKERAEKIELRVHESLKRISCIRSKVEELDQEITETARLQDELFKSTEEYEQQMITIRHLESQSDIINTTINDLKSQMTITDESSEDLEKLHSNFAEKVKEEQELYKSLEKKRSDLESLLKSRRELLEKLTGDLGKIQGEIESLEKLKVKKSTMINEIVHRYNINEINEEGIMTEVSKYASLVNKNYEISSGKLKERQVAVRARIEGIKAHEMFLNNRVSEINSSLEKQLTTQKELRSRFEILFPVKLQREDFTKDVEKSDLWIKSLRQEYESKNLLELLDKHQTALSSVENRLDEISEIVDSYHKYSGVRTKLQVFEENKTNKSAILANQLMTLKSSFSEVMSYELKDDDNYNEELDKLVEDVRKKLQEKEEAESSLRSVRERLEIRISLSVQSINDLTENKKIKTKTLKSYSGTFASMISEIKALESEIEENRKTLHSLQFGSTFYEKAIEICVDQHACQLCQRSLDKEEEKLFVEHCHSMIDVIPSKSAEVYSHLETLTKTFKNLSEAKPIFDEIELLDKRLSETKTELSDLQGDLQGLDIRKDEIQSELDTLYLRRANLEKLQLLVKDISNLEEEIRTIDRETEVLRIELPSSIAHHNLDEIYAEREKLLEKRGYLRKQIERTKLEETSFKKKIDDAVLANNEQKLKLTKLNFQVNELEQLEKDINKSSEDCDLQKKKLLEVSSKQGSQAPFLNELESEYEKLEADIQEMAQKSRTEILEANEYLHQLNEWNSELRIDVSTKFKCIKEKKSNIGEEVRIIASKIESTDDNLRKLQERLADLRTRERNASDNLRLRALMRQLEEAVTQKNYLLSQQSHDDRESFRERMQILKSKYGALNAERAGLLGECKQLENSITKDKEELNMEFKDADERFRRQLIKTKTTGKANEDLGKYAKALDVAIMQLHSMKMNEINRIVDELWKQTYCGTDIDTILIRSDSEGKGNRTYNYRVCMVKGDAELDMRGRCSAGQKVLACIIIRLALAECLGVNCGILALDEPTTNLDEENICSLAKNLSRIVEFRRKQANFQLIVITHDEQFIRLVNSDAYCSYYYRVKRDTNQKSMIVKEPL | binds | –
human Mre11 (natural protein, UniProt P49959 1-708, looked up, Mre11, human, from human MRE11 cDNA in pFASTBAC1; also called M of MRN, Mre11/Rad50 and M2R2; source: Sf9, baculovirus, co-purified with Rad50-3×FLAG (anti-FLAG M2 beads, HiTrapQ, Superdex 200)) MSTADALDDENTFKILVATDIHLGFMEKDAVRGNDTFVTLDEILRLAQENEVDFILLGGDLFHENKPSRKTLHTCLELLRKYCMGDRPVQFEILSDQSVNFGFSKFPWVNYQDGNLNISIPVFSIHGNHDDPTGADALCALDILSCAGFVNHFGRSMSVEKIDISPVLLQKGSTKIALYGLGSIPDERLYRMFVNKKVTMLRPKEDENSWFNLFVIHQNRSKHGSTNFIPEQFLDDFIDLVIWGHEHECKIAPTKNEQQLFYISQPGSSVVTSLSPGEAVKKHVGLLRIKGRKMNMHKIPLHTVRQFFMEDIVLANHPDIFNPDNPKVTQAIQSFCLEKIEEMLENAERERLGNSHQPEKPLVRLRVDYSGGFEPFSVLRFSQKFVDRVANPKDIIHFFRHREQKEKTGEEINFGKLITKPSEGTTLRVEDLVKQYFQTAEKNVQLSLLTERGMGEAVQEFVDKEEKDAIEELVKYQLEKTQRFLKERHIDALEDKIDEEVRRFRETRQKNTNEEDDEVREAMTRARALRSQSEESASAFSADDLMSIDLAEQMANDSDDSISAATNKGRGRGRGRRGGRGQNSASRGGSQRGRADTGLETSTRSRNSKTAVSASRNMSIIDAFKSTRQQPSRNVTTKNYSEVIEVDESDVEEDIFPTTSKTDQRWSSTSSSKIMSQSQVSKGVDFESSEDDDDDPFMNTSSLRRNRR | – | ~1 Rad50 to Mre11, molar ratio

Source: article PMC6969161, “Rad50 zinc hook functions as a constitutive dimerization module interchangeable with SMC hinge” (Nature Communications, 2020)
